Assay results: the supplement of paper PMC7125110
± gives the standard error. For some assays here: This sample holds only a part of the variants without activity.

B1: glmS ribozyme (parent)
chain: AUAAAAGCGCCAGAACUACAGAAAUGUAGUUGACGAGGAGGAGGUUUAUCGAAUUUUCGGCGGAUGCCUCCAAA

Experiments:
Settings in all cases: with glucosamine-6-phosphate
glucosamine-6-phosphate [1] = variants of: B1; test: kcat; higher = faster cleavage; RNA array
Summary of the method: (§1)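 Tiles bearing barcoded ribozyme variants, transcribed in situ by E. coli RNA polymerase on sequenced MiSeq chips, were imaged over ~14 h at 37 °C using a hybridised Cy3 probe. Glucosamine-6-phosphate was supplied at 40 μM to 10 mM in HEPES/KCl/Mg(OAc)2 buffer. kobs came from one- or two-exponential decay fits to normalised per-tile medians, and weighted Michaelis–Menten fits then provided kcat and KM.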

glucosamine-6-phosphate [2] = variants of: B1; test: KM; higher = weaker cofactor use; RNA array
Summary of the method: as §1

glucosamine-6-phosphate [3] = variants of: B1; test: self-cleavage kobs at 160 uM GlcN6P; higher = faster cleavage; RNA array
Summary of the method: as §1

glucosamine-6-phosphate [4] = variants of: B1; test: self-cleavage kobs at 640 uM GlcN6P; higher = faster cleavage; RNA array
Summary of the method: as §1

glucosamine-6-phosphate [5] = variants of: B1; test: self-cleavage kobs at 2500 uM GlcN6P; higher = faster cleavage; RNA array
Summary of the method: as §1

glucosamine-6-phosphate [6] = variants of: B1; test: self-cleavage kobs at 10000 uM GlcN6P; higher = faster cleavage; RNA array
Summary of the method: as §1

glucosamine-6-phosphate [7] = variants of: B1; test: self-cleavage kobs at 40 uM GlcN6P; higher = faster cleavage; RNA array
Summary of the method: as §1

Variant | kcat (glucosamine-6-phosphate [1]) | KM (glucosamine-6-phosphate [2]) | self-cleavage kobs at 160 uM GlcN6P (glucosamine-6-phosphate [3]) | self-cleavage kobs at 640 uM GlcN6P (glucosamine-6-phosphate [4]) | self-cleavage kobs at 2500 uM GlcN6P (glucosamine-6-phosphate [5]) | self-cleavage kobs at 10000 uM GlcN6P (glucosamine-6-phosphate [6]) | self-cleavage kobs at 40 uM GlcN6P (glucosamine-6-phosphate [7])
U55A U65C | 0.000613 ± 6.7e-05 s⁻¹ | 1160 ± 230 µM | 7.83e-05 ± 1.4e-05 s⁻¹ | 0.0002 ± 2.9e-05 s⁻¹ | 0.000471 ± 6.1e-05 s⁻¹ | 0.000505 ± 9.2e-05 s⁻¹ | –
A6C G44C | – | – | < 1e-05 s⁻¹ | < 1e-05 s⁻¹ | – | < 1e-05 s⁻¹ | < 1e-05 s⁻¹
U57A C68A | 2.64e-05 ± 5.2e-06 s⁻¹ | – | – | – | – | – | –
A6G A14G G29C G38A A39G G40A A42U U54C U56A G60C | – | – | – | – | – | – | < 1e-05 s⁻¹
U55A C61U | 1.43e-05 ± 1.1e-06 s⁻¹ | 1930 ± 520 µM | – | – | – | – | –
C61U G62A | < 1e-05 s⁻¹ | – | < 1e-05 s⁻¹ | < 1e-05 s⁻¹ | – | < 1e-05 s⁻¹ | –
A6G C70U | – | – | < 1e-05 s⁻¹ | – | – | – | < 1e-05 s⁻¹
A6U G35U | – | – | < 1e-05 s⁻¹ | < 1e-05 s⁻¹ | < 1e-05 s⁻¹ | < 1e-05 s⁻¹ | < 1e-05 s⁻¹
C58G C71U | 7.95e-05 ± 3.4e-06 s⁻¹ | 402 ± 99 µM | – | 4.63e-05 ± 1.1e-05 s⁻¹ | 7.26e-05 ± 8.7e-06 s⁻¹ | 7.36e-05 ± 9e-06 s⁻¹ | –
A6G A36C C71U | – | – | – | – | – | < 1e-05 s⁻¹ | < 1e-05 s⁻¹
G66U C67A | 0.00338 ± 0.00094 s⁻¹ | 3020 ± 1100 µM | 0.000188 ± 5.8e-05 s⁻¹ | 0.0005 ± 9.9e-05 s⁻¹ | 0.00197 ± 0.00041 s⁻¹ | 0.00241 ± 0.00063 s⁻¹ | 5.28e-05 ± 1.5e-05 s⁻¹
C67U U69A | 4.62e-05 ± 6.3e-06 s⁻¹ | – | – | 5e-05 ± 1.8e-05 s⁻¹ | 4.79e-05 ± 1.1e-05 s⁻¹ | 3.56e-05 ± 1.5e-05 s⁻¹ | < 1e-05 s⁻¹
A6U G32C | – | – | < 1e-05 s⁻¹ | < 1e-05 s⁻¹ | < 1e-05 s⁻¹ | – | < 1e-05 s⁻¹
G59U U69A | 1.61e-05 ± 5.1e-06 s⁻¹ | – | – | – | – | – | –
G62C U69A | 1.17e-05 ± 3.8e-06 s⁻¹ | – | – | – | – | – | –
A6C A14C U45G U57C | – | – | – | – | – | < 1e-05 s⁻¹ | < 1e-05 s⁻¹
C61A C70G | 1.68e-05 ± 3.8e-06 s⁻¹ | – | – | – | – | – | –
C61A C70U | 1.28e-05 ± 2.9e-06 s⁻¹ | – | – | – | – | – | –
C61A C70A | < 1e-05 s⁻¹ | – | < 1e-05 s⁻¹ | – | – | – | < 1e-05 s⁻¹
A6G G29C G51A | – | – | – | – | < 1e-05 s⁻¹ | < 1e-05 s⁻¹ | < 1e-05 s⁻¹
U56G A64G | 0.0177 ± 0.0051 s⁻¹ | 2680 ± 1000 µM | 0.000896 ± 0.00017 s⁻¹ | 0.00313 ± 0.00055 s⁻¹ | 0.00817 ± 0.0015 s⁻¹ | 0.0156 ± 0.0037 s⁻¹ | 0.000369 ± 6.8e-05 s⁻¹

Variant | kcat (glucosamine-6-phosphate [1]) | KM (glucosamine-6-phosphate [2]) | self-cleavage kobs at 160 uM GlcN6P (glucosamine-6-phosphate [3]) | self-cleavage kobs at 640 uM GlcN6P (glucosamine-6-phosphate [4]) | self-cleavage kobs at 2500 uM GlcN6P (glucosamine-6-phosphate [5]) | self-cleavage kobs at 10000 uM GlcN6P (glucosamine-6-phosphate [6]) | self-cleavage kobs at 40 uM GlcN6P (glucosamine-6-phosphate [7])
A6G A14U U31A U57G | – | – | < 1e-05 s⁻¹ | < 1e-05 s⁻¹ | – | < 1e-05 s⁻¹ | < 1e-05 s⁻¹
C70G C71G | 3.62e-05 ± 7e-06 s⁻¹ | – | 3.85e-05 ± 1.4e-05 s⁻¹ | 5.98e-05 ± 1.4e-05 s⁻¹ | 3.62e-05 ± 9.7e-06 s⁻¹ | 2.86e-05 ± 7.6e-06 s⁻¹ | –
U55G C68G | 9.78e-05 ± 1e-05 s⁻¹ | 345 ± 170 µM | – | 6.54e-05 ± 1.3e-05 s⁻¹ | 7.64e-05 ± 1.5e-05 s⁻¹ | 0.000104 ± 1.7e-05 s⁻¹ | –
U69G C71G | 5.4e-05 ± 2.4e-05 s⁻¹ | – | – | 9.05e-05 ± 1.6e-05 s⁻¹ | 3.23e-05 ± 1.5e-05 s⁻¹ | – | –
A6G G9C | – | – | < 1e-05 s⁻¹ | – | – | < 1e-05 s⁻¹ | < 1e-05 s⁻¹
G66U C68A | 6.39e-05 ± 1.2e-05 s⁻¹ | – | 3.61e-05 ± 1.6e-05 s⁻¹ | 9.21e-05 ± 2.2e-05 s⁻¹ | 5.77e-05 ± 8.7e-06 s⁻¹ | – | –
U56C A64G | 0.000167 ± 1.1e-05 s⁻¹ | 2690 ± 560 µM | – | – | 8.52e-05 ± 2.8e-05 s⁻¹ | 0.000131 ± 2e-05 s⁻¹ | –
C67G U69A | 1.14e-05 ± 5.3e-06 s⁻¹ | – | – | – | – | – | –
A6G C71A | – | – | < 1e-05 s⁻¹ | – | – | – | < 1e-05 s⁻¹
A6C G7A G40A | – | – | – | – | – | < 1e-05 s⁻¹ | < 1e-05 s⁻¹
A6G G62C | – | – | < 1e-05 s⁻¹ | < 1e-05 s⁻¹ | < 1e-05 s⁻¹ | < 1e-05 s⁻¹ | < 1e-05 s⁻¹
A6G U56C | – | – | < 1e-05 s⁻¹ | < 1e-05 s⁻¹ | – | < 1e-05 s⁻¹ | < 1e-05 s⁻¹
A6C C67G | – | – | – | – | – | – | < 1e-05 s⁻¹
C61A C67U | 4.47e-05 ± 1.3e-05 s⁻¹ | – | 2.79e-05 ± 1.1e-05 s⁻¹ | 6.41e-05 ± 1.4e-05 s⁻¹ | 4.8e-05 ± 9.3e-06 s⁻¹ | – | –
C67G C71G | 1.33e-05 ± 4.1e-06 s⁻¹ | – | – | – | – | – | –
U56A C67A | 0.00827 ± 0.0033 s⁻¹ | 3230 ± 1600 µM | 0.000294 ± 4.8e-05 s⁻¹ | 0.00132 ± 0.00016 s⁻¹ | 0.00323 ± 0.00075 s⁻¹ | 0.00678 ± 0.0011 s⁻¹ | 0.000132 ± 1.3e-05 s⁻¹
U65A C68G | 4.89e-05 ± 9e-06 s⁻¹ | – | 8.12e-05 ± 1.8e-05 s⁻¹ | 6.22e-05 ± 1e-05 s⁻¹ | 4.97e-05 ± 1.2e-05 s⁻¹ | 3.81e-05 ± 7.3e-06 s⁻¹ | –
U57G C58U C70U | 1.35e-05 ± 3.4e-06 s⁻¹ | – | < 1e-05 s⁻¹ | – | – | – | –
C58A A64C | < 1e-05 s⁻¹ | – | – | – | – | – | < 1e-05 s⁻¹
A6U G13C | – | – | – | < 1e-05 s⁻¹ | < 1e-05 s⁻¹ | – | < 1e-05 s⁻¹
